Measurements: article PMC3399532 (Prion, 2012)

Biological target: MoPrP-Fc (mouse, UniProt P04925 23-230)
Assay: ELISA

MoPrP-Fc, sequence (P04925 23-230): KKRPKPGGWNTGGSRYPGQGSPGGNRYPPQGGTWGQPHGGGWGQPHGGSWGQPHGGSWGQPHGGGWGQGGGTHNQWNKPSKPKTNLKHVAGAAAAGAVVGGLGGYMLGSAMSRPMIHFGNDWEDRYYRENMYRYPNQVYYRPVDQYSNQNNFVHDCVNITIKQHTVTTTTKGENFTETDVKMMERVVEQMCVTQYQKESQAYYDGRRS

B1: mouse (Mo) Dpl (26–155) (domain or fragment)
chain: ARGIKHRFKWNRKVLPSSGGQITEARVAENRPGAFIKQGRKLDIDFGAEGNRYYAANYWQFPDGIYYEGCSEANVTKEMLVTSCVNATQAANQAEFSREKQDSKLHQRVLWRLIKEICSAKHCDFWLERG
binding result: binds
